In the RNAGym collection of RNA variant scans (doi:10.7554/elife.90254):

B1: LINE1-mini (parent)
chain: GGCAGAGCUCAACACAGCGUGGCAAAGUGGCUGUGGCUAGACUGCC

Variants of: B1
Experiment: self-cleavage, relative activity (ratio to wild type); higher = more cleavage; in vitro, sequencing; the parent is a self-cleaving ribozyme

Variant | self-cleavage
G2U A6G | 0.03
G2U A6C | 0.04
G2U A6U | 0.16
G2C U34C | 0.06
G2C U34G | 0.12
G2C U34A | 0.07
C3A C23A | 0.61
C3A C23G | 0.45
C3A C23U | 0.71
G2C U32C | 0.08
G2C U32A | 0.17
G2C U32G | 0.02
C3A G29C | 0.25
C3A G29A | 0.51
G2C C13G | 0.03
G2C C13U | 0.18
G2C C13A | 0.08
G2C C23G | 0.12
G2C C23U | 0.16
G2C C23A | 0.08
G2U A41U | 0.08
G2U A41G | 0.09
G2U A41C | 0.02
G2U U34C | 0.04

Variant | self-cleavage
G2U U34A | 0.04
G2U U34G | 0.03
C3A A24G | 0.78
C3A A24C | 0.27
C3A A24U | 0.51
G2C C42A | 0.08
G2C C42G | 0.03
G2C C42U | 0.07
G2C A26U | 0.09
G2C A26C | 0.11
G2C A26G | 0.11
G2C G35A | 0.06
G2C G35C | 0.05
G2C G35U | 0.23
G2U A39G | 0.04
G2U A39U | 0.04
G2U A39C | 0.03
G2C A41G | 0.17
G2C A41C | 0.12
G2C A41U | 0.12
C3A G19C | 0.18
C3A G19A | 0.61
C3A G19U | 0.24
G2U U43C | 0.06

Variant | self-cleavage
G2U U43A | 0.04
G2U U43G | 0.02
G2U U9C | 0.01
G2U U9G | 0.06
G2U U9A | 0.06
G2C G21C | 0.25
G2C G21A | 0.51
G2C G21U | 0.12
G2U C13U | 0.06
G2U C13G | 0.02
G2U C13A | 0.06
G2C A25U | 0.08
G2C A25G | 0.06
G2C A25C | 0.15
C3A G21U | 0.47
C3A G21C | 0.23
C3A G21A | 1.23
C3A A39U | 0.48
C3A A39C | 0.11
C3A A39G | 0.57
G2U G35C | 0.05
G2U G35U | 0.07
G2U G35A | 0.05
G2C G36U | 0.1

Variant | self-cleavage
G2C G36A | 0.25
G2C G36C | 0.04
G2U A12G | 0.02
G2U A12U | 0.04
G2U A12C | 0.02
G2U C3G | 0.26
G2U C3A | 0.48
G2U C3U | 0.37
G2C C31G | 0.06
G2C C31U | 0.08
G2C C31A | 0.07
C3A C8A | 0.85
C3A C8U | 0.69
C3A C8G | 0.3
G2U G22U | 0.11
G2U G22C | 0.12
G2U G22A | 0.11
G2U C10A | 0.02
G2U C10U | 0.03
G2U C10G | 0.02
C3A C18A | 0.18
C3A C18G | 0.2
C3A C18U | 0.49
G2U G5U | 0.02

Variant | self-cleavage
G2U G5A | 0.06
G2U G5C | 0.04
G2U C8U | 0.1
G2U C8A | 0.07
G2U C8G | 0.04
G2U G29U | 0.11
G2U G29A | 0.09
G2U G29C | 0.04
G2C U43G | 0.04
G2C U43A | 0.04
G2C U43C | 0.15
G2C C10A | 0.03
G2C C10U | 0.03
G2C C10G | 0.03
G2C G22U | 0.23
G2C G22A | 0.15
G2C G22C | 0.05
G2C C46U | 0.07
G2C C46A | 0.09
G2C C46G | 0.16
G2C C45G | 0.61
G2C C45A | 0.25
G2C C45U | 0.19
G2C U9G | 0.07

Variant | self-cleavage
G2C U9A | 0.16
G2C U9C | 0.03
C3A A6U | 0.76
C3A A6C | 0.38
C3A A6G | 0.2
C3A A26G | 0.67
C3A A26U | 0.49
C3A A26C | 0.44
C3A C37A | 0.35
C3A C37G | 0.28
C3A C37U | 0.33
G2C G19A | 0.17
G2C G19U | 0.11
G2C G19C | 0.16
G2C G7U | 0.28
G2C G7A | 0.06
G2C G7C | 0.14
C3A A12U | 0.57
C3A A12G | 0.12
C3A A12C | 0.07
C3A C31G | 0.13
C3A C31U | 0.11
C3A C31A | 0.16
C3A A41C | 0.15

Variant | self-cleavage
C3A A41G | 0.22
C3A A41U | 0.32
G2C C18A | 0.06
G2C C18U | 0.09
G2C C18G | 0.05
G2C G44U | 0.14
G2C G44A | 0.17
G2C G44C | 0.18
G2U A16U | 0.02
G2U A16G | 0.05
G2U A16C | 0.13
G2U C31G | 0.03
G2U C31A | 0.04
G2U C31U | 0.02
G2U A26G | 0.13
G2U A26C | 0.09
G2U A26U | 0.11
C3A C45U | 0.53
C3A C45G | 0.42
C3A C45A | 0.48
C3A C13A | 0.25
C3A C13U | 1.71
C3A C13G | 0.54
